The values below come from publication PMC11191887, “Abstracts From the First Annual Research Day Hosted by the Michigan State University College of Osteopathic Medicine, Novi, Michigan, May 15, 2023” (Spartan Medical Research Journal, 2024).

The assay addresses T1, House dust mite allergen Der p 2 (Dermatophagoides pteronyssinus, UniProt P49278).
T1 construct: Der p 2, major allergen of the house dust mite Dermatophagoides pteronyssinus; The structure is said to show monomeric Der p 2; No PDB id is printed in the abstract; source: Pichia pastoris, purified
Kind of assay: crystal structure; purified 4C8 Fab and Der p 2 mixed in a 1:1 molar ratio for crystallization; X-ray, 3.0 Å. Particulars: both partners purified.

T1 sequence (P49278 18-146): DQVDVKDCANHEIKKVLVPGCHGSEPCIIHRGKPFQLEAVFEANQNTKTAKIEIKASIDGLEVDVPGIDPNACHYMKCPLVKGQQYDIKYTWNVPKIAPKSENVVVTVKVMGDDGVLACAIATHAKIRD

B1: human-derived IgE mAb 4C8 Fab (Fab, V domains shown)
VH: EVQLVESGGGLVQPGGSLRLSCAASGFTFSSYAIHWVRQAPGKGLEWVSGLSGGGGDTDYADSVKGRLTISRDNSKKTLFLEMNNLRPEDTAIYYCAKLTGYGSTPGSYMDVWGKGTTVSVSS
VL: SFELTQPPSVSVSPGQTASITCSGDKLGDIYASWYQQKPGQSPVVVIFQDNKRPSGVPERFSGSNSGNTATLTISGTQALDEADYYCQAWDTSTSVFGTGTKVTVL
notes: Fab of a human IgE mAb isolated from hybridomas obtained from a house dust mite allergic patient; also called hIgE mAb 4C8 Fab; source: CHO cells, purified
With B1, the “stoichiometry N” value was found to be 2.

One may read the stoichiometry N as a count of units in the complex or per binding partner.
